{"source": "paper PMC5735978", "about": "“PAK6 Phosphorylates 14-3-3γ to Regulate Steady State Phosphorylation of LRRK2” (Frontiers in Molecular Neuroscience, 2017)", "key": {"3xFlag-PAK6 wild-type [1]": {"molecular_target": "T1, 3xFlag-PAK6 wild-type (UniProt Q9NQU5 1-681, autophosphorylated; phospho-Ser560 monitored by western blot)", "T1 construct": "construct as described in Civiero et al., 2015; source: HEK293T, transfected; in lysate (immunoprecipitation) and immunopurified on anti-Flag resin (pull-down, overlay)", "test": "far-Western, overlay or dot blot; immunopurified Flag-tagged PAK6 or LRRK2 separated by SDS-PAGE and blotted onto nitrocellulose; incubated with purified His-14-3-3s at 1 μg/ml in 5% BSA in TBS-T overnight at 4°C; anti-His detection", "details": "both partners purified"}, "3xFlag-PAK6 S531N": {"molecular_target": "T2, 3xFlag-PAK6 S531N (UniProt Q9NQU5 1-681, S531N, autophosphorylated; phospho-Ser560 monitored by western blot)", "T2 construct": "PAK6, constitutively active variant; construct as described in Civiero et al., 2015; also called active variant S531N; source: HEK293T, transfected; in lysate (immunoprecipitation) and immunopurified (overlay)", "T2 sequence (Q9NQU5 whole entry S531N)": "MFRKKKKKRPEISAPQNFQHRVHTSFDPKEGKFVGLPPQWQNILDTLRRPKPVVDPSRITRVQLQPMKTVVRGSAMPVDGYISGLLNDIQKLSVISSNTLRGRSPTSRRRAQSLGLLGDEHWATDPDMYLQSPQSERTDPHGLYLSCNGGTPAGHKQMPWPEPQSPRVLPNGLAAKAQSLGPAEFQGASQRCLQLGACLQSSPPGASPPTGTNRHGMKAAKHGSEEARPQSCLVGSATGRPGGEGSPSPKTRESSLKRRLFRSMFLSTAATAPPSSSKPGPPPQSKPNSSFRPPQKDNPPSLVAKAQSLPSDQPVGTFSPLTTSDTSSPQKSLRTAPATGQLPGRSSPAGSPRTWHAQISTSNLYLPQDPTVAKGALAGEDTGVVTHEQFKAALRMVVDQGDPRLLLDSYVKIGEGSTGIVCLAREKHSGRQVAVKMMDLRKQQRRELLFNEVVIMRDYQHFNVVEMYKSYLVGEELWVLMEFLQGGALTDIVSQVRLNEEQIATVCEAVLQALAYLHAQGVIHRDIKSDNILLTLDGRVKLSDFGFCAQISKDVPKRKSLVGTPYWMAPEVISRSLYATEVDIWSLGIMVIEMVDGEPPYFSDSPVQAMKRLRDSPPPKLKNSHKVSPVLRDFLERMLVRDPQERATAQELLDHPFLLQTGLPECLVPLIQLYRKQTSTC", "test": "far-Western, overlay or dot blot; immunopurified Flag-tagged PAK6 or LRRK2 separated by SDS-PAGE and blotted onto nitrocellulose; incubated with purified His-14-3-3s at 1 μg/ml in 5% BSA in TBS-T overnight at 4°C; anti-His detection", "details": "both partners purified"}, "3xFlag-PAK6 wild-type [2]": {"molecular_target": "T1, 3xFlag-PAK6 wild-type", "test": "pull-down; Flag-purified PAK6 bound to anti-Flag resin incubated for 2 h with purified His-14-3-3 isoforms (1 μM); bound 14-3-3s revealed with anti-His antibody", "details": "both partners purified"}, "[3]": {"molecular_target": "the molecule itself", "test": "native gel or EMSA; blue native gel (4-16%) of purified His-14-3-3γ wild-type, S59D and T145D; 5 μg of protein loaded; Coomassie staining"}}, "data": [{"binder": "6xHis-14-3-3 zeta (natural protein, human, UniProt P63104 1-245, looked up, 14-3-3 protein zeta, cloned in pET28a(+) by PCR from a mammalian expression plasmid (Prof. Dario Alessi); also called His-14-3-3ζ; source: E. coli BL21(DE3), purified (IMAC, ProBond resin; PD10 desalting); not shown: 6xHis, N-terminal, kept) MDKNELVQKAKLAEQAERYDDMAACMKSVTEQGAELSNEERNLLSVAYKNVVGARRSSWRVVSSIEQKTEGAEKKQQMAREYREKIETELRDICNDVLSLLEKFLIPNASQAESKVFYLKMKGDYYRYLAEVAAGDDKKGIVDQSQQAYQEAFEISKKEMQPTHPIRLGLALNFSVFYYEILNSPEKACSLAKTAFDEAIAELDTLSEESYKDSTLIMQLLRDNLTLWTSDTQGDEAEAGEGGEN", "values": [{"measurement": "binding result", "setting": "3xFlag-PAK6 wild-type [1]", "result": "binds"}]}, {"binder": "6xHis-14-3-3γ wild-type (natural protein, human, UniProt P61981 1-247, looked up, 14-3-3 protein gamma, cloned in pET28a(+) by PCR from a mammalian expression plasmid (Prof. Dario Alessi); runs around the size of the dimer on blue native gels; also called recombinant 14-3-3γ; 14-3-3 gamma; source: E. coli BL21(DE3), purified (IMAC, ProBond resin; PD10 desalting); not shown: 6xHis, N-terminal, kept) MVDREQLVQKARLAEQAERYDDMAAAMKNVTELNEPLSNEERNLLSVAYKNVVGARRSSWRVISSIEQKTSADGNEKKIEMVRAYREKIEKELEAVCQDVLSLLDNYLIKNCSETQYESKVFYLKMKGDYYRYLAEVATGEKRATVVESSEKAYSEAHEISKEHMQPTHPIRLGLALNYSVFYYEIQNAPEQACHLAKTAFDDAIAELDTLNEDSYKDSTLIMQLLRDNLTLWTSDQQDDDGGEGNN", "values": [{"measurement": "fold affinity against PAK6 wild-type", "setting": "3xFlag-PAK6 S531N", "result": 2, "unit": "fold"}, {"measurement": "binding result", "setting": "3xFlag-PAK6 wild-type [2]", "result": "binds"}]}, {"binder": "His-14-3-3γ T145D (natural protein, human, UniProt P61981 1-247, looked up, 14-3-3 protein gamma, phosphomimetic mutant; also called S145D (as once printed); source: E. coli BL21(DE3), purified (IMAC); not shown: 6xHis, N-terminal, kept) MVDREQLVQKARLAEQAERYDDMAAAMKNVTELNEPLSNEERNLLSVAYKNVVGARRSSWRVISSIEQKTSADGNEKKIEMVRAYREKIEKELEAVCQDVLSLLDNYLIKNCSETQYESKVFYLKMKGDYYRYLAEVATGEKRADVVESSEKAYSEAHEISKEHMQPTHPIRLGLALNYSVFYYEIQNAPEQACHLAKTAFDDAIAELDTLNEDSYKDSTLIMQLLRDNLTLWTSDQQDDDGGEGNN", "values": [{"measurement": "binding result", "setting": "[3]", "result": "binds"}]}, {"binder": "6xHis-14-3-3 theta (natural protein, human, UniProt P27348 1-245, looked up, 14-3-3 protein theta, cloned in pET28a(+) by PCR from a mammalian expression plasmid (Prof. Dario Alessi); also called His-14-3-3θ; source: E. coli BL21(DE3), purified (IMAC, ProBond resin; PD10 desalting); not shown: 6xHis, N-terminal, kept) MEKTELIQKAKLAEQAERYDDMATCMKAVTEQGAELSNEERNLLSVAYKNVVGGRRSAWRVISSIEQKTDTSDKKLQLIKDYREKVESELRSICTTVLELLDKYLIANATNPESKVFYLKMKGDYFRYLAEVACGDDRKQTIDNSQGAYQEAFDISKKEMQPTHPIRLGLALNFSVFYYEILNNPELACTLAKTAFDEAIAELDTLNEDSYKDSTLIMQLLRDNLTLWTSDSAGEECDAAEGAEN", "values": [{"measurement": "binding result", "setting": "3xFlag-PAK6 wild-type [1]", "result": "binds"}]}]}
